According to PMC4728290:

Molecular target: human insulin receptor fused with Renilla luciferase 8 (human) (UniProt P06213)

## bovine insulin (ligand)
  EC50 of insulin for the insulin-induced BRET increase between hIR–Rluc8 and Grb2–Venus (m1 + m3), live HEK293 cells, insulin 0.001-10,000 nM: 4.4 nM
  EC50 of insulin for the insulin-induced BRET increase between hIR–Rluc8 and IRS1–YFP (m1 + m2), live HEK293 cells, insulin 0.001-10,000 nM: 2.2 nM
